pKd: −log10 of the molar value.
Biological target: pY peptide GGGpYGGG
Test: BLI (Octet RED384), biotinylated peptide on streptavidin sensor, Fab in solution, 1:1 fit

Row | Substance | pKd
1 | PY20^4D5 (Fab) | 5.74
2 | 4G10^4D5 (Fab) | 6.56

— patent US20200131277A1
